Experimental findings from publication PMC6952207, “Development and Evaluation of a Novel Protein-Based Assay for Specific Detection of KPC β-Lactamases from Klebsiella pneumoniae Clinical Isolates” (mSphere, 2020) are described below.

Some targets named below: KPC-9 β-lactamase (UniProt Q9F663); CTX-M-15 β-lactamase (UniProt Q9EXV5); KPC-6 β-lactamase (UniProt Q9F663); KPC-3 β-lactamase (UniProt Q9F663); KPC-7 β-lactamase (UniProt Q9F663); KPC-8 β-lactamase (UniProt Q9F663); KPC-4 β-lactamase (UniProt Q9F663); KPC-5 β-lactamase (UniProt Q9F663).
Assay in all cases: enzyme inhibition assay (nitrocefin hydrolysis); β-lactamase (0.2 to 1 nM) mixed with increasing concentrations of BLIP^K74T/W112D in 50 mM sodium phosphate pH 7.0, 100 μg/ml BSA, room temperature, 20 min; initial nitrocefin hydrolysis rates at 482 nm fitted to the Morrison tight binding inhibitor equation
For test [1], the target named is TEM-1 β-lactamase (enzyme of the Ki assay) (UniProt P62593).
Test [2] concerns the target CTX-M-14 β-lactamase (enzyme of the Ki assay) (UniProt Q9L5C7).
Test [3] deals with T1, KPC-2 β-lactamase (purified) (UniProt Q9F663 30-293).
T1 construct: KPC-2 carbapenemase (class A β-lactamase); also called KPC-2 carbapenemase; source: E. coli BL21(DE3) (pET-28a+), purified (Co2+ Talon resin, Superdex75 gel filtration)
As to conditions: both partners purified.

A further test has as its target T2, OXA-48 carbapenemase (UniProt Q6XEC0 23-265).
T2 construct: OXA-48 carbapenemase (β-lactamase)
Conditions: both partners purified.

“β-lactamase inhibitory protein variant BLIP^K74T/W112D (from UniProt P35804 37-201) (natural protein)”: the Ki (commonly the equilibrium dissociation constant of an inhibitor or competing ligand from its target) turned out to be 0.7 nM with KPC-9 β-lactamase; 433 nM in the test with CTX-M-15 β-lactamase; 1.3 nM in the test with KPC-6 β-lactamase; 2.5 nM with KPC-3 β-lactamase; 6240 nM in test [1]; 1.5 nM with KPC-7 β-lactamase. The Ki with KPC-8 β-lactamase was 1.6 nM; in [2], 908 nM; with KPC-4 β-lactamase, 1.2 nM; with KPC-5 β-lactamase, 1.5 nM.

B1: β-lactamase inhibitory protein variant BLIP^K74T/W112D (natural protein)
chain: AGVMTGAKFTQIQFGMTRQQVLDIAGAENCETGGSFGDSIHCRGHAAGDYYAYATFGFTSAAADAKVDSKSQETLLAPSAPTLTLAKFNQVTVGMTRAQVLATVGQGSCTTDSEYYPAYPSTAGVTLSLSCFDVDGYSSTGFYRGSAHLWFTDGVLQGKRQWDLV
notes: the variant was found there by mutagenesis and genetic screening; also called BLIP mutant; source: E. coli RB791 (plasmid pGR32), purified (Co2+ Talon resin, Superdex75 gel filtration); not shown: His6, N-terminal, kept
With B1, the Ki in test [3] was determined as 2.4 ± 0.4 nM; with OXA-48 carbapenemase it was 1180 ± 129 nM.
